T1: Drosophila septin polypeptide Pnut (Drosophila (endogenous in embryos), UniProt P40797 1-539)
T1 sequence (looked up): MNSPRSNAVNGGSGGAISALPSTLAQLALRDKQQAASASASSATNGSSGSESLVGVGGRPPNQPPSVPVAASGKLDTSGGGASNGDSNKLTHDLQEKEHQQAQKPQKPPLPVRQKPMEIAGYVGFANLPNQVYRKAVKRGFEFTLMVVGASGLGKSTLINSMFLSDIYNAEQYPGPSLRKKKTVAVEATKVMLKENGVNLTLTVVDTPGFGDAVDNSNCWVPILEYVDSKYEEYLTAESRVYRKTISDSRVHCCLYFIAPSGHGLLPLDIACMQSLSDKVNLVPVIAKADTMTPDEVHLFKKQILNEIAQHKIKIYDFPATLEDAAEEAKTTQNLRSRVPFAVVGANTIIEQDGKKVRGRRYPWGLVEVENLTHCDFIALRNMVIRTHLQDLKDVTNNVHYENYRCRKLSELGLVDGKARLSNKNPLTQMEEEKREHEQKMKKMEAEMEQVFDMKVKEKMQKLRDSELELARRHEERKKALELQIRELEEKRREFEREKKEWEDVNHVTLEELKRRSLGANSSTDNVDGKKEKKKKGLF

B1: Drosophila septin polypeptide Sep2 (natural protein, Drosophila (endogenous in embryos), UniProt P54359 1-419, looked up)
chain: MSVEVDFVDKKEVHLRTLKQSGHVGFDSLPDQLVNKSVQNGFVFNVMCIGETGLGKSTLMDTLFNTSFESTPSPHTLPSVKLKAHTYELQESNVRLKLTICDTVGYGDQINKDDSFKAVVDYIDAQFENYLQEELKIKRSLVTCHDSRIHICLYFICPTGHGLKSLDLVCMKKLDSKVNIIPVIAKADTISKVELQRFKAKIIQELNANGVHIYQFPTDDETVAETNTSMNSHIPFAVVGSTEFIKVGNKLIRARQYPWGTVQVENETHCDFVKLREMLIRTNMEDMREKTHTRHYELYRQKRLEQMGFSDVDSDNKPISFQQTFEAKRSNHLAELQSKEEEVRQMFVQRVKEKEAELKESEKDLHAKFEKLKRDHAEEKRKLEESRKALEEDYLDFQRRKQQLATAHHTLTLGKSKKK
B2: Drosophila septin polypeptide Sep1 (natural protein, Drosophila (endogenous in embryos), UniProt P42207 1-361, looked up)
chain: MADTKGFSSIETPGYVGFANLPNQVHRKSVKKGFEFTLMVVGESGLGKSTLVNSLFLTDLYPERIIPDAIEKQKQTVKLEASTVEIEERGVKLRLTVVDTPGFGDAIDNSNSFGAILEYIDEQYERFLRDESGLNRRNIVDNRIHCCFYFISPFGHGLKPLDVEFMKKLHSKVNIVPVIAKADCLTKKEILRLKCRIMQEIESHGIKIYPLPDCDSDEDEDYKEQVKQLKEAVPFAVCGANTLLEVKGKKVRGRLYPWGVVEVENPDHCDFIKLRTMLITHMQDLQEVTQEVHYENYRSDRLAKGIKGKENGVKAERDSSSQVVSNSVLGEKDRILQEKEAELRRMQEMLAQMQARMQAQQ

Molecular target: T1, Drosophila septin polypeptide Pnut
Experiment: co-IP

| Binder | stoichiometry N |
| --- | --- |
| B1 | ~1 |
| B2 | ~1 |

— PMC2120824 (The Journal of Cell Biology, 1996)
